Laboratory results published in publication PMC9604439, “Mutation Hotspot for Changing the Substrate Specificity of β-N-Acetylhexosaminidase: A Library of GlcNAcases” (International Journal of Molecular Sciences, 2022).
Positions count from the first letter of the chain named. In names and notes the source's numbering stands.

B1: TfHex (β-N-acetylhexosaminidase from Talaromyces flavus) (Talaromyces flavus; E332A) (protein)
chain: VAVNPLPAPRSITWGTSGPISVPHNVDVKLPKNAIINDAWERAWTSIKQLRWVPQATEAPISSYEPFPTVAPTSASTASSTPLPSSSAAAVAARSQKRGHQKGSHEKRGHSQSTLRTVTVTVSDLNADLQAEVDESYTLVLDSGSSTLAITANTTWGALHAFTTLQQLVIYQDNSLIIEQPVHIEDSPLYPWRGVMIDTGRNFITVPKIKEQIDGMALSKLNILHWHLDDSQSWPVHMDTYPQMTNDAYSPWQTYSHEDIKDIIEYARARAVRVVPEVDMPGHSAAGWQQVDPSIVACAHSWWSNDNWPYHTAVAPTPGQLDPLNNKTYGVVEKVYNELSGIFTDDFFHVGGDELQTGCYNFSTYVSDYLAADPSRTYNDVTQYWVDHAFPIFKKIQNRKLVIWEDLIINNPHAPNVSTENLLVQSWNNGLTNINNLTNLGYDVLVSSSDFMYLDCGYGGFVTNDPRYDVMVNPDAVDGLANFNWGGNGGSWCAPYKTWQRIYDYDFTTNLTDAQAAHVKGAVAPLWSEQVDDTVISGKMWPRAAALAELVWSGNKDPKTGDKRTTYMTQRILNFREYLVANGVQAAPLVPKYCLQHPHSCDLYYDQTAVV
notes: secreted via alpha-factor, pPICZαA, Pichia pastoris KM71H, cation-exchange purified; tetramer of two catalytic subunits and two non-covalently linked propeptides
B2: TfHex (β-N-acetylhexosaminidase from Talaromyces flavus) (Talaromyces flavus; E332T) (protein)
chain: B1 chain with A315T
notes: as for B1
B3: TfHex (β-N-acetylhexosaminidase from Talaromyces flavus) (Talaromyces flavus; E332N) (protein)
chain: B1 chain with A315N
notes: as for B1
B4: TfHex (β-N-acetylhexosaminidase from Talaromyces flavus) (Talaromyces flavus; E332G) (protein)
chain: B1 chain with A315G
notes: as for B1

The proteins below were run on CC(=O)N[C@H]1[C@H](Oc2ccc([N+](=O)[O-])cc2)O[C@H](CO)[C@@H](O)[C@@H]1O (assay: discontinuous p-nitrophenolate release assay, non-linear regression). Conditions: McIlvaine buffer pH 5.0, 25 °C.
Assay type: biochemical, Talaromyces flavus
Work on B1 yielded a Km of 880 ± 70 µM and a kcat of 30 ± 1 s⁻¹. Work on B2 yielded a Km of 800 ± 100 µM and a kcat of 13.3 ± 0.4 s⁻¹. In the case of B3, the Km is reported as 1220 ± 70 µM and the kcat is reported as 22.5 ± 0.4 s⁻¹. B4 gave a Km of 1800 ± 200 µM and a kcat of 51 ± 2 s⁻¹.
